How the values were obtained:
HeLa Kyoto [1] = assay: thermal stability score vs G1/S (z-score of summed log2 fold changes over temperatures); higher = more thermally stable than in G1/S
HeLa Kyoto [2] = assay: solubility change mitosis vs G1/S (difference of NP-40 vs SDS log2 ratios) (log2 ratio difference); higher = more soluble in mitosis
HeLa Kyoto [3] = assay: melting temperature (median over replicates), in situ; higher = more thermally stable
HeLa Kyoto [4] = assay: solubility in G1/S (NP-40 vs SDS abundance) (log2 ratio); higher = more soluble; details: cell cycle stage: G1/S
[5] = cell cycle stage: early G1 (4.5 h after nocodazole release)
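For melting temperature (median over replicates), in situ in this document: HeLa Kyoto cells synchronized by double thymidine or nocodazole block, proteins quantified by TMT10plex mass spectrometry, three independent biological replicates.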
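For solubility change mitosis vs G1/S (difference of NP-40 vs SDS log2 ratios) in this document: synchronized HeLa Kyoto cells (double thymidine block for G1/S, nocodazole release for mitosis), protein amounts in NP-40 versus SDS lysates quantified by mass spectrometry, three biological replicates.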
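For solubility in G1/S (NP-40 vs SDS abundance) in this document: HeLa Kyoto cells arrested at G1/S by double thymidine block, proteins quantified by TMT10plex mass spectrometry in mild NP-40 versus SDS extracts, three biological replicates.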
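For thermal stability score vs G1/S (z-score of summed log2 fold changes over temperatures) in this document: synchronized HeLa Kyoto cells, proteins quantified by TMT10plex mass spectrometry, three biological replicates, mitosis taken 0.5 h after nocodazole release, G1/S directly after double thymidine block.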

| Sequence | thermal stability score (HeLa Kyoto [1]; [5]) | thermal stability score (HeLa Kyoto [1]; cell cycle stage: mitosis) | solubility change mitosis (log2) (HeLa Kyoto [2]) | melting temperature (HeLa Kyoto [3]; cell cycle stage: G1/S) [°C] | melting temperature (HeLa Kyoto [3]; cell cycle stage: mitosis) [°C] | solubility in G1/S (log2) (HeLa Kyoto [4]) |
| --- | --- | --- | --- | --- | --- | --- |
| MSATAAARKRGKPASGAGAGAGAGKRRRKADSAGDRGKSKGGGKMNEEISSDSESESLAPRKPEEEEEEELEETAQEKKLRLAKLYLEQLRQQEEEKAEARAFEEDQVAGRLKEDVLEQRGRLQKLVAKEIQAPASADIRVLRGHQLSITCLVVTPDDSAIFSAAKDCSIIKWSVESGRKLHVIPRAKKGAEGKPPGHSSHVLCMAISSDGKYLASGDRSKLILIWEAQSCQHLYTFTGHRDAVSGLAFRRGTHQLYSTSHDRSVKVWNVAENSYVETLFGHQDAVAALDALSRECCVTAGGRDGTVRVWKIPEESQLVFYGHQGSIDCIHLINEEHMVSGADDGSVALWGLSKKRPLALQREAHGLRGEPGLEQPFWISSVAALLNTDLVATGSHSSCVRLWQCGEGFRQLDLLCDIPLVGFINSLKFSSSGDFLVAGVGQEHRLGRWWRIKEARNSVCIIPLRRVPVPPAAGS [RRP9] | -3.65 | -9.84 | 0.596 | 59.7 | 56.5 | -1.11 |
| MSCCDLAAAGQLGKASIMASDCEPALNQAEGRNPTLERYLGALREAKNDSEQFAALLLVTKAVKAGDIDAKTRRRIFDAVGFTFPNRLLTTKEAPDGCPDHVLRALGVALLACFCSDPELAAHPQVLNKIPILSTFLTARGDPDDAARRSMIDDTYQCLTAVAGTPRGPRHLIAGGTVSALCQAYLGHGYGFDQALALLVGLLAAAETQCWKEAEPDLLAVLRGLSEDFQKAEDASKFELCQLLPLFLPPTTVPPECYRDLQAGLARILGSKLSSWQRNPALKLAARLAHACGSDWIPAGSSGSKFLALLVNLACVEVRLALEETGTEVKEDVVTACYALMELGIQECTRCEQSLLKEPQKVQLVSVMKEAIGAVIHYLLQVGSEKQKEPFVFASVRILGAWLAEETSSLRKEVCQLLPFLVRYAKTLYEEAEEANDLSQQVANLAISPTTPGPTWPGDALRLLLPGWCHLTVEDGPREILIKEGAPSLLCKYFLQQWELTSPGHDTSVLPDSVEIGLQTCCHIFLNLVVTAPGLIKRDACFTSLMNTLMTSLPALVQQQGRLLLAANVATLGLLMARLLSTSPALQGTPASRGFFAAAILFLSQSHVARATPGSDQAVLALSPEYEGIWADLQELWFLGMQAFTGCVPLLPWLAPAALRSRWPQELLQLLGSVSPNSVKPEMVAAYQGVLVELARANRLCREAMRLQAGEETASHYRMAALEQCLSEP [NCDN] | 1.7 | 2.44 | -0.084 | 49.8 | 50.2 | 0.191 |
| MSCINLPTVLPGSPSKTRGQIQVILGPMFSGKSTELMRRVRRFQIAQYKCLVIKYAKDTRYSSSFCTHDRNTMEALPACLLRDVAQEALGVAVIGIDEGQFFPDIVEFCEAMANAGKTVIVAALDGTFQRKPFGAILNLVPLAESVVKLTAVCMECFREAAYTKRLGTEKEVEVIGGADKYHSVCRLCYFKKASGQPAGPDNKENCPVPGKPGEAVAARKLFAPQQILQCSPAN [TK1] | -4.01 | -1.09 | -0.138 | 56.1 | 57.3 | 0.28 |
| MSDAAVDTSSEITTKDLKEKKEVVEEAENGRDAPANGNAENEENGEQEADNEVDEEEEEGGEEEEEEEEGDGEEEDGDEDEEAESATGKRAAEDDEDDDVDTKKQKTDEDD [PTMA] | -0.717 | -1.69 | -0.00535 | 54.9 | 55.1 | -1.5 |
| MSDDDSRASTSSSSSSSSNQQTEKETNTPKKKESKVSMSKNSKLLSTSAKRIQKELADITLDPPPNCSAGPKGDNIYEWRSTILGPPGSVYEGGVFFLDITFTPEYPFKPPKVTFRTRIYHCNINSQGVICLDILKDNWSPALTISKVLLSICSLLTDCNPADPLVGSIATQYMTNRAEHDRMARQWTKRYAT [UBE2E1] | 1.73 | 3.2 | -0.151 | 48.5 | 49.5 | 0.338 |
| MSDEGSRGSRLPLALPPASQGCSSGGGGGGSSAGGSGNSRPPRNLQGLLQMAITAGSEEPDPPPEPMSEERRQWLQEAMSAAFRGQREEVEQMKSCLRVLSQPMPPTAGEAEQAADQQEREGALELLADLCENMDNAADFCQLSGMHLLVGRYLEAGAAGLRWRAAQLIGTCSQNVAAIQEQVLGLGALRKLLRLLDRDACDTVRVKALFAISCLVREQEAGLLQFLRLDGFSVLMRAMQQQVQKLKVKSAFLLQNLLVGHPEHKGTLCSMGMVQQLVALVRTEHSPFHEHVLGALCSLVTDFPQGVRECREPELGLEELLRHRCQLLQQHEEYQEELEFCEKLLQTCFSSPADDSMDR [HSPBP1] | 0.863 | 0.675 | 0.0712 | 50.8 | 51.2 | 0.303 |
| MSDEREVAEAATGEDASSPPPKTEAASDPQHPAASEGAAAAAASPPLLRCLVLTGFGGYDKVKLQSRPAAPPAPGPGQLTLRLRACGLNFADLMARQGLYDRLPPLPVTPGMEGAGVVIAVGEGVSDRKAGDRVMVLNRSGMWQEEVTVPSVQTFLIPEAMTFEEAAALLVNYITAYMVLFDFGNLQPGHSVLVHMAAGGVGMAAVQLCRTVENVTVFGTASASKHEALKENGVTHPIDYHTTDYVDEIKKISPKGVDIVMDPLGGSDTAKGYNLLKPMGKVVTYGMANLLTGPKRNLMALARTWWNQFSVTALQLLQANRAVCGFHLGYLDGEVELVSGVVARLLALYNQGHIKPHIDSVWPFEKVADAMKQMQEKKNVGKVLLVPGPEKEN [VAT1] | -0.577 | -3.49 | -0.125 | 55.9 | 55.3 | 0.232 |
| MSDKLPYKVADIGLAAWGRKALDIAENEMPGLMRMRERYSASKPLKGARIAGCLHMTVETAVLIETLVTLGAEVQWSSCNIFSTQDHAAAAIAKAGIPVYAWKGETDEEYLWCIEQTLYFKDGPLNMILDDGGDLTNLIHTKYPQLLPGIRGISEETTTGVHNLYKMMANGILKVPAINVNDSVTKSKFDNLYGCRESLIDGIKRATDVMIAGKVAVVAGYGDVGKGCAQALRGFGARVIITEIDPINALQAAMEGYEVTTMDEACQEGNIFVTTTGCIDIILGRHFEQMKDDAIVCNIGHFDVEIDVKWLNENAVEKVNIKPQVDRYRLKNGRRIILLAEGRLVNLGCAMGHPSFVMSNSFTNQVMAQIELWTHPDKYPVGVHFLPKKLDEAVAEAHLGKLNVKLTKLTEKQAQYLGMSCDGPFKPDHYRY [AHCY] | -2.93 | -2.39 | -0.0568 | 58.9 | 59.3 | 0.0748 |
| MSDLLLLGLIGGLTLLLLLTLLAFAGYSGLLAGVEVSAGSPPIRNVTVAYKFHMGLYGETGRLFTESCSISPKLRSIAVYYDNPHMVPPDKCRCAVGSILSEGEESPSPELIDLYQKFGFKVFSFPAPSHVVTATFPYTTILSIWLATRRVHPALDTYIKERKLCAYPRLEIYQEDQIHFMCPLARQGDFYVPEMKETEWKWRGLVEAIDTQVDGTGADTMSDTSSVSLEVSPGSRETSAATLSPGASSRGWDDGDTRSEHSYSESGASGSSFEELDLEGEGPLGESRLDPGTEPLGTTKWLWEPTAPEKGKE [TEX264] | 0.0754 | -0.347 | -0.257 | 51.2 | 51.2 | -0.0622 |
| MSDNGELEDKPPAPPVRMSSTIFSTGGKDPLSANHSLKPLPSVPEEKKPRHKIISIFSGTEKGSKKKEKERPEISPPSDFEHTIHVGFDAVTGEFTGMPEQWARLLQTSNITKLEQKKNPQAVLDVLKFYDSNTVKQKYLSFTPPEKDGFPSGTPALNAKGTEAPAVVTEEEDDDEETAPPVIAPRPDHTKSIYTRSVIDPVPAPVGDSHVDGAAKSLDKQKKKTKMTDEEIMEKLRTIVSIGDPKKKYTRYEKIGQGASGTVFTATDVALGQEVAIKQINLQKQPKKELIINEILVMKELKNPNIVNFLDSYLVGDELFVVMEYLAGGSLTDVVTETCMDEAQIAAVCRECLQALEFLHANQVIHRDIKSDNVLLGMEGSVKLTDFGFCAQITPEQSKRSTMVGTPYWMAPEVVTRKAYGPKVDIWSLGIMAIEMVEGEPPYLNENPLRALYLIATNGTPELQNPEKLSPIFRDFLNRCLEMDVEKRGSAKELLQHPFLKLAKPLSSLTPLIMAAKEAMKSNR [PAK2] | -1.97 | -1.45 | -0.119 | 54.9 | 54.6 | 0.152 |
| MSEAGGRGCGSPVPQRARWRLVAATAAFCLVSATSVWTAGAEPMSREEKQKLGNQVLEMFDHAYGNYMEHAYPADELMPLTCRGRVRGQEPSRGDVDDALGKFSLTLIDSLDTLVVLNKTKEFEDAVRKVLRDVNLDNDVVVSVFETNIRVLGGLLGGHSLAIMLKEKGEYMQWYNDELLQMAKQLGYKLLPAFNTTSGLPYPRINLKFGIRKPEARTGTETDTCTACAGTLILEFAALSRFTGATIFEEYARKALDFLWEKRQRSSNLVGVTINIHTGDWVRKDSGVGAGIDSYYEYLLKAYVLLGDDSFLERFNTHYDAIMRYISQPPLLLDVHIHKPMLNARTWMDALLAFFPGLQVLKGDIRPAIETHEMLYQVIKKHNFLPEAFTTDFRVHWAQHPLRPEFAESTYFLYKATGDPYYLEVGKTLIENLNKYARVPCGFAAMKDVRTGSHEDRMDSFFLAEMFKYLYLLFADKEDIIFDIEDYIFTTEAHLLPLWLSTTNQSISKKNTTSEYTELDDSNFDWTCPNTQILFPNDPLYAQSIREPLKNVVDKSCPRGIIRVEESFRSGAKPPLRARDFMATNPEHLEILKKMGVSLIHLKDGRVQLVQHAIQAASSIDAEDGLRFMQEMIELSSQQQKEQQLPPRAVQIVSHPFFGRVVLTAGPAQFGLDLSKHKETRGFVASSKPSNGCSELTNPEAVMGKIALIQRGQCMFAEKARNIQNAGAIGGIVIDDNEGSSSDTAPLFQMAGDGKDTDDIKIPMLFLFSKEGSIILDAIREYEEVEVLLSDKAKDRDPEMENEEQPSSENDSQNQSGEQISSSSQEVDLVDQESSEENSLNSHPESLSLADMDNAASISPSEQTSNPTENHETTNLNGECTDLDNQLQEQSETEEDSNPNVSWGKKVQPIDSILADWNEDIEAFEMMEKDEL [EDEM3] | 0.67 | 0.929 | -0.156 | 53.5 | 53.7 | 0.311 |
